Like-named read-outs stand apart in the source and are kept apart here. Non-standard residues stand in square brackets, D forms with d. Residues, ends and D or L forms follow the SMILES beside them. *: point of attachment. dChg = N[C@@H](C(=O)O)C1CCCCC1; pNA = O=[N+]([O-])c1ccc(N*)cc1; Cbz = O=C(OCc1ccccc1)*; Moc = COC(=O)*
Experiments:
[1] = molecular target: purified recombinant P. textilis venom FXa (v-FXa) (Pseudonaja textilis, UniProt Q56VR3); assay: biochemical
[2] = molecular target: constitutively active partial B-domainless recombinant form of human FV (FV-810) (human) (UniProt P12259); assay: kinetic assay of prothrombinase assembly (rate of prothrombin activation); apparent; steady-state initial velocities of prothrombin activation at 25 °C in assay buffer (20 mM Hepes, 0.15 M NaCl, pH 7.5, 5 mM CaCl2, 0.1% PEG8000) with PCPS (50 µM); how the cofactor was varied is not told
[3] = molecular target: chimeric factor Xa variant B (human FXa with His91-Tyr99 replaced by the homologous region of Tropid (human | Tropidechus carinatus)); assay: inhibition of enzyme amidolytic activity (Morrison tight-binding fit)
[4] = molecular target: chimeric factor Xa variant C (human FXa with His91-Tyr99 replaced by the homologous region of P. textilis isoform FX) (human | Pseudonaja textilis); assay: as above
[5] = molecular target: recombinant wild-type human factor Xa (human); assay: as above
pd-FXa (h-FXa) [6] = molecular target: T1, pd-FXa (h-FXa) (Homo sapiens, UniProt P00742); format: biochemical; conditions: read-out: SpecXa Michaelis–Menten constant (K m)
T1 construct: gene F10; plasma-derived human FXa (Haematologic Technologies); free or prothrombinase-assembled with FV-810 and PCPS, see series

wt-FXa (WT) [7] = molecular target: T2, wt-FXa (WT) (Homo sapiens, UniProt P00742); format: biochemical; conditions: read-out: SpecXa Michaelis–Menten constant (K m)
T2 construct: gene F10; free or prothrombinase-assembled with FV-810 and PCPS, see series

FXa-A [8] = test system: T3, FXa-A; format: biochemical; conditions: read-out: SpecXa Michaelis–Menten constant (K m)
T3 construct: His91-Tyr99 replaced with homologous region of P. textilis venom FX

FXa-B [9] = test system: T4, FXa-B; format: biochemical; conditions: read-out: SpecXa Michaelis–Menten constant (K m)
T4 construct: His91-Tyr99 replaced with homologous region of T. carinatus venom FX

FXa-C [10] = test system: T5, FXa-C; format: biochemical; conditions: read-out: SpecXa Michaelis–Menten constant (K m)
T5 construct: His91-Tyr99 replaced with homologous region of P. textilis isoform FX

[11] = molecular target: chimeric factor Xa variant B (human FXa with His91-Tyr99 replaced by the homologous region of Tropid (human | Tropidechus carinatus))
[12] = molecular target: chimeric factor Xa variant C (human FXa with His91-Tyr99 replaced by the homologous region of P. textilis isoform FX) (human | Pseudonaja textilis)
[13] = molecular target: plasma-derived human factor Xa (human)
[14] = molecular target: recombinant wild-type human factor Xa (human)
pd-FXa = molecular target: T6, pd-FXa (Homo sapiens, UniProt P00742); format: biochemical
T6 construct: the heavy chain derived from α or β FXa (α/β), the FXa light chain (LC); purchased Haematologic Technologies (Essex Junction, VT, USA); host or cells: human plasma

wt-FXa = molecular target: T7, wt-FXa (Homo sapiens, UniProt P00742); assay: Inhibition of FXa by TFPI and rTAP (residual amidolytic activity); format: biochemical
T7 construct: made in house; host or cells: HEK293 (co-transfected with furin)

FXa-A [15] = molecular target: FXa-A (Homo sapiens, UniProt P00742); format: biochemical, human-snake chimera; conditions: rTAP 0.5–100 nM, 1 nM FXa, 30 min
FXa-B [16] = molecular target: FXa-B (Homo sapiens, UniProt P00742); assay: Inhibition of FXa by TFPI and rTAP (residual amidolytic activity); format: biochemical, human-snake chimera; conditions: rTAP 0.5–100 nM, 1 nM FXa, 30 min
FXa-B [17] = assay: as above; format: biochemical, human-snake chimera; conditions: in the chimeric FXa variants
FXa-C [18] = molecular target: T8, FXa-C (Homo sapiens, UniProt P00742, E317A/INS311KKFVPPQKA/K316L/N312Y/R313K/T315D/T318A); format: biochemical, human-snake chimera; conditions: rTAP 0.5–100 nM, 1 nM FXa, 30 min
T8 construct: made in house

[19] = molecular target: plasma-derived human factor Xa (human); assay: inhibition of enzyme amidolytic activity (Morrison tight-binding fit)
[20] = molecular target: RVV-X activated P. textilis venom FX (Pseudonaja textilis, UniProt Q56VR3); assay: biochemical
[21] = molecular target: RVV-X activated P. textilis isoform FX (Pseudonaja textilis, UniProt Q1L658); assay: biochemical
[22] = molecular target: RVV-X activated P. textilis liver FX (Pseudonaja textilis, UniProt Q1L659); assay: biochemical
pd-FXa (h-FXa) [23] = molecular target: T1, pd-FXa (h-FXa); format: biochemical; conditions: read-out: S2765^a K m; n = 2
wt-FXa (WT) [24] = molecular target: T2, wt-FXa (WT); format: biochemical; conditions: read-out: S2765^a K m; n = 2
FXa-A [25] = test system: T3, FXa-A; format: biochemical; conditions: n = 2; read-out: S2765^a K m
FXa-B [26] = test system: T4, FXa-B; format: biochemical; conditions: n = 2; read-out: S2765^a K m
FXa-C [27] = test system: T5, FXa-C; format: biochemical; conditions: n = 2; read-out: S2765^a K m
pd-FXa (h-FXa) [28] = molecular target: T1, pd-FXa (h-FXa); format: biochemical; conditions: read-out: S2765^b K m; n = 2
wt-FXa (WT) [29] = molecular target: T2, wt-FXa (WT); format: biochemical; conditions: read-out: S2765^b K m; n = 2
FXa-A [30] = test system: T3, FXa-A; format: biochemical; conditions: n = 2; read-out: S2765^b K m
FXa-B [31] = test system: T4, FXa-B; format: biochemical; conditions: n = 2; read-out: S2765^b K m
FXa-C [32] = test system: T5, FXa-C; format: biochemical; conditions: n = 2; read-out: S2765^b K m

O=C(NC[C@H]1CN(c2ccc(N3CCOCC3=O)cc2)C(=O)O1)c1ccc(Cl)s1 [Rivaroxaban, 5-chloro-N-({(5S)-2-oxo-3-[4-(3-oxomorpholin-4-yl)phenyl]-1,3-oxazolidin-5-yl}methyl)thiophene-2-carboxamide] gave an IC50 [1] of no less than 30000 nM.

plasma-derived human factor Xa (enzyme) gave a Kd [2] of 0.41 nM.

“tissue factor pathway inhibitor alpha (from UniProt P10646-1 29-304) (natural protein)” gave a Ki [3] of 4.41 nM, a Ki [4] of 6.46 nM and a Ki [5] of 1.62 nM.

In the case of COC(=O)N[C@@H](C(=O)NCC(=O)N[C@@H](CCCNC(=N)N)C(=O)Nc1ccc([N+](=O)[O-])cc1)C1CCCCC1 [SpecXa, methoxycarbonylcyclohexylglycylglycyl-Arg-pNA] (Moc-[dChg]-Gly-Arg-pNA), the Km (pd-FXa (h-FXa) [6]) is reported as 138 µM, the Km (wt-FXa (WT) [7]) is reported as 135 µM and the Km (FXa-A [8]) is reported as 645 µM. For the same molecule, the Km (FXa-B [9]) was 658 µM and the Km (FXa-C [10]) was 659 µM.

For “antithrombin (from UniProt P01008 33-464) (natural protein)”, the k 2, UFH: second-order rate constant of FXa inhibition by antithrombin with unfractionated heparin [11] was 1.02e+06 M⁻¹ s⁻¹, the k 2, uncatalyzed: second-order rate constant of FXa inhibition by antithrombin [11] was 410 M⁻¹ s⁻¹ and the k 2, UFH: second-order rate constant of FXa inhibition by antithrombin with unfractionated heparin [12] was 6.73e+06 M⁻¹ s⁻¹. The k 2, uncatalyzed: second-order rate constant of FXa inhibition by antithrombin [12] was 950 M⁻¹ s⁻¹, the k 2, UFH: second-order rate constant of FXa inhibition by antithrombin with unfractionated heparin [13] was 3.59e+06 M⁻¹ s⁻¹ and the k 2, uncatalyzed: second-order rate constant of FXa inhibition by antithrombin [13] was 1550 M⁻¹ s⁻¹. For the same molecule, the k 2, UFH: second-order rate constant of FXa inhibition by antithrombin with unfractionated heparin [14] was 3.09e+06 M⁻¹ s⁻¹ and the k 2, uncatalyzed: second-order rate constant of FXa inhibition by antithrombin [14] was 4070 M⁻¹ s⁻¹.

For “chimeric factor Xa variant B (human FXa with His91-Tyr99 replaced by the homologous region of Tropid (enzyme)”, the Kd [2] was 0.85 nM.

“rTAP (YNRLCIKPRDWIDECDSNEGGERAYFRNGKGGCDSFWICPEDHTGADYYSSYRDCFNACI)” gave a Ki (pd-FXa) of 0.87 ± 0.18 nM, a Ki (wt-FXa) of 0.7 ± 0.04 nM and a Ki (FXa-A [15]) of 26.3 ± 8.45 nM. For the same molecule, the Ki (FXa-B [16]) was 7.92 ± 1.88 nM, the fold reduced binding (FXa-B [17]) was “at least 11 fold” and the Ki (FXa-C [18]) was 20.2 ± 6.56 nM.

“recombinant wild-type human factor Xa (enzyme)” was tested, and the Kd [2] was 1.44 nM.

For “recombinant tick saliva anticoagulant protein (from UniProt P17726 1-60) (natural protein)”, the Ki [3] was 7.92 nM, the Ki [4] was 20.2 nM and the Ki [19] was 0.87 nM. For the same molecule, the Ki [5] was 0.7 nM.

For COc1ccc(-n2nc(C(N)=O)c3c2C(=O)N(c2ccc(N4CCCCC4=O)cc2)CC3)cc1 [Apixaban, 1-(4-methoxyphenyl)-7-oxo-6-(4-(2-oxopiperidin-1-yl)phenyl)-4,5,6,7-tetrahydro-1H -pyrazolo[3,4-c]pyridine-3-carboxamide], the IC50 [1] was no less than 100000 nM, the IC50 [20] was no less than 100000 nM and the IC50 [21] was no less than 100000 nM. It also gave an IC50 [22] of 12 nM.

Work on “chimeric factor Xa variant C (human FXa with His91-Tyr99 replaced by the homologous region of P. textilis isoform FX) (enzyme)” yielded a Kd [2] of 0.57 nM.

Molecule N=C(N)NCCC[C@H](NC(=O)CNC(=O)[C@@H](CCCNC(=N)N)NC(=O)OCc1ccccc1)C(=O)Nc1ccc([N+](=O)[O-])cc1 [S2765, N-α-benzyloxycarbonyl-D-Arg-Gly-Arg-pNA] (Cbz-[dR]-Gly-Arg-pNA) has a Km (pd-FXa (h-FXa) [23]) of 59 ± 19 µM, a Km (wt-FXa (WT) [24]) of 33 ± 7 µM and a Km (FXa-A [25]) of 39 ± 7 µM. The Km (FXa-B [26]) was 49 ± 8 µM, the Km (FXa-C [27]) was 60 ± 11 µM and the Km (pd-FXa (h-FXa) [28]) was 29 ± 8 µM. The Km (wt-FXa (WT) [29]) was 26 ± 8 µM, the Km (FXa-A [30]) was 243 ± 50 µM and the Km (FXa-B [31]) was 249 ± 29 µM. It also gave a Km (FXa-C [32]) of 216 ± 28 µM.
